# According to US20150023959A1 (BIOVERATIV THERAPEUTICS, published 2015):
# Biological target: T1, FVIII-155/VWF-031 heterodimer
# T1 construct: The two chains are held together by disulfide bonds between the Fc regions; also called FVIII155/VWF31 heterodimer; FVIII155:VWF31
# Assay: Octet BLI, heterodimer immobilized on protein G sensor, FVIII in solution
# Method: For the assay, full length VWF was captured by using APS sensor. The binding of FVIIIFc and FVIII to the full-length VWF is shown at the lower left panel. The lack of binding of FVIIIY1680 (a mutant having no affinity for VWF) and FVIII:VWF heterodimer (FVIII155/VWF031) is shown at the lower right panel. […] The binding of the constructs to FVIII was measured.
# The same experiment was performed in reverse orientation to determine if the D′D3 portion in the FVIII-VWF heterodimer can interact with other FVIII molecules not covalently attached to D′D3. […] Protein G alone with FVIII was used as control. These binding experiments confirmed that D′D3 in heterodimer can interact with only one FVIII molecule which is covalently attached to it and prevent FVIII from interacting with full length wild type VWF molecules.
# T1 sequence (chain, as listed by the source): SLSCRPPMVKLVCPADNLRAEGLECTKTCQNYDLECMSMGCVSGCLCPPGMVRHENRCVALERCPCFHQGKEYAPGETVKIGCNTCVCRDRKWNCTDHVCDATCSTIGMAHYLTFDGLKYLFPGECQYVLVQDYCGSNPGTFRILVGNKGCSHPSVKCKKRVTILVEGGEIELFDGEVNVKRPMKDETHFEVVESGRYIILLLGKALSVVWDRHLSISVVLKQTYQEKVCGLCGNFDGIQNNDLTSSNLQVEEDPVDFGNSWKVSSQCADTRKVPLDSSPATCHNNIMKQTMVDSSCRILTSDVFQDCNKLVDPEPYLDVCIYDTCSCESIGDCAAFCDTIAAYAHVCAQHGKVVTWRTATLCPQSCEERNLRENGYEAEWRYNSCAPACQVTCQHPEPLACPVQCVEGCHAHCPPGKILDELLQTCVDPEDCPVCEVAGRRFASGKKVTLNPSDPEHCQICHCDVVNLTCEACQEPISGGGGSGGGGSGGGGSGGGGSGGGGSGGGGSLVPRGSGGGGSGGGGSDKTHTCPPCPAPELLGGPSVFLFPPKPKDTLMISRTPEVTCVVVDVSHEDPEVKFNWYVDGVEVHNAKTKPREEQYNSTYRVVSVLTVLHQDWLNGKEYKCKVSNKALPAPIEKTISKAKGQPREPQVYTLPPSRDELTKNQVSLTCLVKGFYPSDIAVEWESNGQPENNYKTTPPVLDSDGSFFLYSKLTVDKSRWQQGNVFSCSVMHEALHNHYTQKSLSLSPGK
binder,measurement,value
"rFVIII (other, also called wild type FVIII) ATRRYYLGAVELSWDYMQSDLGELPVDARFPPRVPKSFPFNTSVVYKKTLFVEFTDHLFNIAKPRPPWMGLLGPTIQAEVYDTVVITLKNMASHPVSLHAVGVSYWKASEGAEYDDQTSQREKEDDKVFPGGSHTYVWQVLKENGPMASDPLCLTYSYLSHVDLVKDLNSGLIGALLVCREGSLAKEKTQTLHKFILLFAVFDEGKSWHSETKNSLMQDRDAASARAWPKMHTVNGYVNRSLPGLIGCHRKSVYWHVIGMGTTPEVHSIFLEGHTFLVRNHRQASLEISPITFLTAQTLLMDLGQFLLFCHISSHQHDGMEAYVKVDSCPEEPQLRMKNNEEAEDYDDDLTDSEMDVVRFDDDNSPSFIQIRSVAKKHPKTWVHYIAAEEEDWDYAPLVLAPDDRSYKSQYLNNGPQRIGRKYKKVRFMAYTDETFKTREAIQHESGILGPLLYGEVGDTLLIIFKNQASRPYNIYPHGITDVRPLYSRRLPKGVKHLKDFPILPGEIFKYKWTVTVEDGPTKSDPRCLTRYYSSFVNMERDLASGLIGPLLICYKESVDQRGNQIMSDKRNVILFSVFDENRSWYLTENIQRFLPNPAGVQLEDPEFQASNIMHSINGYVFDSLQLSVCLHEVAYWYILSIGAQTDFLSVFFSGYTFKHKMVYEDTLTLFPFSGETVFMSMENPGLWILGCHNSDFRNRGMTALLKVSSCDKNTGDYYEDSYEDISAYLLSKNNAIEPRSFSQNPPVLKRHQREITRTTLQSDQEEIDYDDTISVEMKKEDFDIYDEDENQSPRSFQKKTRHYFIAAVERLWDYGMSSSPHVLRNRAQSGSVPQFKKVVFQEFTDGSFTQPLYRGELNEHLGLLGPYIRAEVEDNIMVTFRNQASRPYSFYSSLISYEEDQRQGAEPRKNFVKPNETKTYFWKVQHHMAPTKDEFDCKAWAYFSDVDLEKDVHSGLIGPLLVCHTNTLNPAHGRQVTVQEFALFFTIFDETKSWYFTENMERNCRAPCNIQMEDPTFKENYRFHAINGYIMDTLPGLVMAQDQRIRWYLLSMGSNENIHSIHFSGHVFTVRKKEEYKMALYNLYPGVFETVEMLPSKAGIWRVECLIGEHLHAGMSTLFLVYSNKCQTPLGMASGHIRDFQITASGQYGQWAPKLARLHYSGSINAWSTKEPFSWIKVDLLAPMIIHGIKTQGARQKFSSLYISQFIIMYSLDGKKWQTYRGNSTGTLMVFFGNVDSSGIKHNIFNPPIIARYIRLHPTHYSIRSTLRMELMGCDLNSCSMPLGMESKAISDAQITASSYFTNMFATWSPSKARLHLQGRSNAWRPQVNNPKEWLQVDFQKTMKVTGVTTQGVKSLLTSMYVKEFLISSSQDGHQWTLFFQNGKVKVFQGNQDSFTPVVNSLDPPLLTRYLRIHPQSWVHQIALRMEVLGCEAQDLY",binding result,no binding
